Test results as given in patent US20240254225A1 (INOTREM, published 2024).

How the values were obtained:
[1] = target: T1, recombinant cynomolgus monkey TREM-1 (cynomolgus monkey, UniProt A0A2K5VHG8 21-204); assay: SPR, Fab immobilised, cynomolgus TREM-1 injected; replicate 1
T1 construct: Soluble recombinant protein injected as SPR analyte; construct not described; also called cTREM-1; cynomolgus TREM-1
T1 sequence: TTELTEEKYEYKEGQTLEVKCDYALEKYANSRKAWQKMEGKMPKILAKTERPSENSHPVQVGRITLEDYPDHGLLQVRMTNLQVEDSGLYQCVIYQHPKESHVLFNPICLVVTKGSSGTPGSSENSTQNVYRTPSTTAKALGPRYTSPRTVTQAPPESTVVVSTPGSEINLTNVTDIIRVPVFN
Procedure: (§1) Surface plasmon resonance (SPR): in order to evaluate the interaction kinetics for TREM-1 antibodies or Fabs to hTREM-1 (human TREM-1) and cTREM-1 (cynomolgus monkey TREM-1), surface plasmon resonance (SPR) assays were carried out (Biacore™ T200, GE Healthcare Biosciences). The anti-human Fc antibodies (Cytiva) were immobilized on CM5 sensor chip in order to evaluate IgG1 affinities and Fabs were directly immobilized on the chip. Immobilization experiments were performed at 25° C. using HBS-EP+1× running buffer (10 mM HEPES, 150 mM NaCl, 3 mM EDTA, 0.05% surfactant P20, pH 7.4). The anti-human Fc antibodies or Fabs were diluted in 10 mM sodium acetate at acidic pH before the immobilization procedure using amine coupling on the dextran matrix of the sensor chips. […] Following these injections, ethanolamine was injected to deactivate the surface. The immobilization wizard was used to obtain several thousand of immobilized RU (resonance units). The immobilization level was chosen in order to have a proper covering of the sensor chip surface. […] Binding of hTREM-1 or cTREM-1 proteins was conducted by injecting analyte over all flow cells. […] The concentrations were evaluated using the Single Cycle Kinetics method. This approach consists of a sequential injection of increasing concentration of the analyte, with a single regeneration step using a magnesium chloride buffer (Cytiva) at the end of the cycle. Binding affinity of TREM-1 antibodies or Fabs with hTREM-1 or cTREM-1 was quantified by determination of the equilibrium dissociation constant (KD) determined by measurement of the kinetics of complex formation and dissociation.

[2] = target: T1, recombinant cynomolgus monkey TREM-1; assay: SPR, Fab immobilised, cynomolgus TREM-1 injected; replicate 2
Procedure: as §1

[3] = target: T1, recombinant cynomolgus monkey TREM-1; assay: SPR, Fab immobilised, cynomolgus TREM-1 injected; average
Procedure: as §1

B1: humanized anti-TREM-1 Fab fragment INO-10F-4 (Fab, V domains shown)
VH: EVQLVESGGALVKPGGSLRLSCAASGFNIGNTYIHWVRQAPGKGLEWVGRIDPAGGRTKYAPKVKGRFTISADDSKNTAYLQMNSLKTEDTAVYYCTGHRGGTMDYWGQGTLVTVSS
VL: EIVLTQSPATLSLSPGERATLSCRASQSVSNYGISFLNWYQQKPGQAPRLLIYAAEYRGRGIPARFSGSGSGTDFTLTISSLEPEDFAVYYCQQSSNVPYTFGQGTKVEIK
notes: Fab
A Kd [1] of 24.8 nM, a Kd [2] of 24.4 nM and a Kd [3] of 24.6 nM were found for B1 in this work.

B2: humanized anti-TREM-1 Fab fragment INO-10F-2 (Fab, V domains shown)
VH: EVQLVESGGALVKPGGSLRLSCAASGFNIGNTYIHWVRQAPGKGLEWIGRIDPAGGRTKYSPKVQGRFTISAPTSKNTAYLQMNSLKTEDTAVYYCTGHRGGTMDYWGQGTLVTVSS
VL: EIVLTQSPATLSLSPGERATLSCRASQSVSNYGISFLNWYQQKPGQAPRLLIYAASYQKRGIPARFSGSGSGTDFTLTISSLEPEDFAVYYCQQSSNFPWTFGQGTKVEIK
notes: Fab
A Kd [2] of 28.5 nM and a Kd [3] of 28.3 nM were found for B2 in this work.

B3: humanized anti-TREM-1 Fab fragment INO-10F-6 (Fab, V domains shown)
VH: EVQLVESGGALVKPGGSLRLSCAASGFNIGNTYIHWVRQAPGKGLEWVGRIDPAGGRTKYAPKVKGRFTISADDSKNTLYLQMNSLKTEDTAVYYCTGHRGGTMDYWGQGTLVTVSS
VL: EIVLTQSPATLSLSPGERATLSCRASQSVSNYGISFLNWYQQKPGQAPRLLIYAAEYRARGIPARFSGSGSGTDFTLTISSLEPEDFAVYYCQQSSNVPYTFGQGTKVEIK
notes: Fab
A Kd [1] of 60.1 nM, a Kd [2] of 53.4 nM and a Kd [3] of 56.8 nM were found for B3 in this work.

B4: humanized anti-TREM-1 Fab fragment INO-10F-3 (Fab, V domains shown)
VH: EVQLVESGGALVKPGGSLRLSCAASGFNIDNTYIHWVRQAPGKGLEWIGRIDPAGGRTKYDPKVKGRFTISADTSKNTAYLQMNSLKTEDTAVYYCTGHYGGTMDYWGQGTLVTVSS
VL: EIVLTQSPATLSLSPGERATLSCRASESVDNYGISFLNWYQQKPGQAPRLLIYAAEYRGRGIPARFSGSGSGTDFTLTISSLEPEDFAVYYCQQSRHVPYTFGQGTKVEIK
notes: Fab
A Kd [1] of 7.6 nM, a Kd [2] of 7.68 nM and a Kd [3] of 7.64 nM were found for B4 in this work.

B5: anti-hTREM-1 Fab fragment INO-10F (Fab, V domains shown)
VH: AVQLQQSVAALVRPGASVKLSCTASGFNIKNTYIHWVKQRPEQGLEWIGRIDPANGNTKYAPKFQGKATITADTSSDTAYLQLSSLTSDDTAIYYCTGHYGSTMDYWGQGTSVTVSS
VL: not shown
notes: Recombinant chimeric Fab (murine variable regions) made in CHO cells and purified on HisTrap Excel; also called INO-10 Fab
A Kd [1] of 57.9 nM, a Kd [2] of 66.6 nM and a Kd [3] of 62.2 nM were found for B5 in this work.
